# Publication PMC8041747
# Biological target: full-length 13-lined ground squirrel TRPV1 (13-lined ground squirrel (Ictidomys tridecemlineatus))
# Assay: cryo-EM structure; purified sqTRPV1 in 150 mM NaCl, 20 mM Tris pH 8.0, 1 mM βME, 0.01% GDN; apo, with 50 μM RTX or with 300 μM capsaicin
substance,measurement,value
full-length 13-lined ground squirrel TRPV1 (natural protein),stoichiometry N,4 subunits
